Data on 83 variants can be found in the RNAGym collection of RNA variant scans (doi:10.1093/molbev/msab373).

B1: Azoarcus group I ribozyme (parent)
chain: GUGCCUUGCGCCGGGAAACCACGCAAGGGAUGGUGUCAAAUUCGGCGAAACCUAAGCGCCCGCCCGGGCGUAUGGCAACGCCGAGCCAAGCUUCGGCGCCUGCGCCGAUGAAGGUGUAGAGACUAGACGGCACCCACCUAAGGCAAACGCUAUGGUGAAGGCAUAGUCCAGGGAGUGGCGAAAGUCACACAAACCGG

The variants in the data set derive from B1. Put plainly: reverse-splicing fitness (ratio to wild type); higher = more active; in vitro selection; Mg2+ level not given. An outline of the steps: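 An in vitro group I ribozyme library with randomized positions was T7-transcribed and gel-purified. In triplicate, 10 pmol RNA in EPPS pH 7.5 was reacted with 50 pmoles of a 30-nt RNA substrate for 1 h at 37 °C across several added MgCl2 levels (1–48 mM), then stopped with EDTA. Products were reverse transcribed from a substrate-complementary primer, PCR-amplified and sequenced (HiSeq 4000). Fitness is a variant's read proportion after selection over that before, normalised to wild type.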
As for C82U A111U A120U A145G C150U C169U U176A, the reverse-splicing fitness was determined as 0.00396.
On to A120U C150A C169A U176C, for which the reverse-splicing fitness is 0.00333.
The value for C82A A111C A120C C150A was 0.0114; that for C82U A111U A120G A145G C150U C169G U176C was 0.016.
As to C82G A111G A120G C150A C169G U176G, the reverse-splicing fitness is 0.00621.
The value for C82U A111C A120C A145G C150U C169G U176G was 0.00547.
As for C82G A111U A120G A145G C150U C169G U176C, the figure is 0.0192.
As for C82G A111G A145G C150U C169G, the figure is 0.0106; as for C82A A120G A145U C150U U176G, 0.00531.
C82U A111G A120G C150A C169G U176A: the reverse-splicing fitness turned out to be 0.0186.
Regarding A111C A120C A145C C150U C169A U176G, the reverse-splicing fitness is 0.00703.
A111U A120C A145C U176G: the reverse-splicing fitness amounted to 0.0498.
The value for C82A C150U C169G U176C was 0.0175; that for C82A A120U C169U U176C was 0.00453.
Take C82U A120C A145G C150A U176G: the reverse-splicing fitness amounted to 0.00716.
In the case of A111G A120G C169A U176C, the reverse-splicing fitness worked out at 0.0737.
On to C82A A111U A120U C150U C169U U176A, for which the reverse-splicing fitness is 0.00662.
Turning to C82G A145G C150A C169A, the reverse-splicing fitness is 0.0117.
As for A111C A120G C169U, the figure is 0.17; as for C82U A111G A120G C169G, 0.0125.
As for C82A A111C A120G A145U C150U C169A U176C, the figure is 0.00986; as for C82G A111G C150G C169G U176A, 0.0106.
On to C82U A111U A120U A145G C150A C169U U176A, for which the reverse-splicing fitness was found to be 0.00439.
The value for C82U A111C A120C C150U C169G U176G was 0.00553.
As for C82U A111C A120G A145U C150U C169G U176C, the reverse-splicing fitness came out at 0.0111.
As for C82A A120C C150U C169A, the figure is 0.0105; as for C82U A111U C150A U176C, 0.0289; as for C82U A111G A120G A145G C150A C169G, 0.009.
As for C82G A145U C150U U176C, the figure is 0.234.
As for C82G A111G A120C A145U C169A U176C, the figure is 0.0149.
In the case of C82A A111G A120U A145U C150G, the reverse-splicing fitness was 0.00746.
On to C82U A111U A120G C150U U176G, for which the reverse-splicing fitness amounted to 0.00537.
As for A120G A145U C150U U176A, the figure is 0.155.
As for C82U A111G A120G C150U C169A U176G, the figure is 0.00504; as for C82U A111U A145U U176C, 0.154; as for C82A A111U A120G A145G C169G U176C, 0.0285.
The value for C82U C150U C169U U176A was 0.0128.
Turning to C82A A111G A120G C169U U176A, the reverse-splicing fitness came out at 0.0208.
As for C82U A111C A120U C150G C169G U176C, the figure is 0.00317.
In the case of C82U A111U A120U C150U U176A, the reverse-splicing fitness worked out at 0.00668.
The value for C82A A111U A120G A145C C150G C169A U176A was 0.00838; that for C82U A111U A120G A145C C150U C169G U176A was 0.0216.
For C82G A111C A120G A145C C150A C169A, the reverse-splicing fitness was determined as 0.00918.
The value for C82G A111G A120C A145C C150G C169G U176A was 0.0112; that for C82A A111C A120U A145G C150A U176A was 0.00754; that for A111U A120G C169G U176C was 0.0539.
The value for C82G A120C C150U C169G U176C was 0.0162.
The value for C82U A120U A145C C150G was 0.0193; that for C82G A111U C150U was 0.192.
In the case of C82G A111G A120U C150G C169G, the reverse-splicing fitness was determined as 0.00678.
Turning to C82A A111G A120U C169A U176G, the reverse-splicing fitness stood at 0.00152.
As for A111G A120C A145G C150G C169A, the figure is 0.00936; as for C82A A111U C150A C169A U176C, 0.0197; as for C82U A111G A145U C150G C169A U176G, 0.00561.
As for C82U A111U A120U A145C C150U U176C, the figure is 0.00469.
The value for C82A A111U A120G C169A was 0.0102.
With A111U A120C A145C C150U U176C, the reverse-splicing fitness stood at 0.0967.
In the case of A111G A120G A145C C150A C169G U176C, the reverse-splicing fitness was determined as 0.0168.
Regarding A111G A120G A145C C150A C169G U176G, the reverse-splicing fitness was determined as 0.00542.
As for C82A A111C A145G U176C, the figure is 0.0992.
The value for C82U A111G A120U A145G C150A U176C was 0.00749.
Turning to C82G A111U A145U C150U C169U U176C, the reverse-splicing fitness is 0.0136.
In the case of C82G A111U A145C C150A C169G U176A, the reverse-splicing fitness is 0.0227.
Turning to A111C A145G C150G C169A U176A, the reverse-splicing fitness turned out to be 0.0119.
As for A111U A120G A145C C169A, the figure is 0.11.
As to C82A A111C A120G A145U C150U C169G U176A, the reverse-splicing fitness came to 0.012.
C82U A120C A145U C150G C169U U176A: the reverse-splicing fitness is 0.00974.
As for C82G A111G A120U A145C C150A C169U U176C, the figure is 0.00238.
As to C82U A120C A145G C150G C169A, the reverse-splicing fitness came out at 0.00952.
On to C82G A111C A120U C150A C169A U176G, for which the reverse-splicing fitness was 0.00289.
As for A120G A145U C150A C169U U176G, the figure is 0.00749.
As for C82G A111U A120U A145C C169A U176G, the figure is 0.00205; as for A111C A120U A145C C150A C169A U176G, 0.00226.
Take C82U A111U A145C C150A U176G: the reverse-splicing fitness was determined as 0.00625.
The value for C82G A111C A120U A145U C150U U176C was 0.013; that for C82G A111G A145G C150A C169U U176A was 0.0155.
Consider C82G A111C A120C C169A, for which the reverse-splicing fitness came to 0.00716.
Consider C82A A111U A120U A145G C150A C169G U176A, for which the reverse-splicing fitness was 0.0104.
As for C82A A111C A145U C169A U176C, the reverse-splicing fitness was 0.0156.
The value for A111U A120U A145G C150U U176C was 0.206; that for C82G A111U A120C A145C C150G U176G was 0.00354.
As for C82U A120U C150U U176G, the figure is 0.00728; as for C82A A111G A120U A145C C150U C169G U176G, 0.00192.
